Source: US20230279124A1

Target: human IgE (human) (UniProt P01854)
Assay: BLI (Octet RED 384), GI-305 captured on AHC biosensor, IgE 1.6 to 100 nM as analyte

Chain of UniProt P01854 (P01854 other isoform, or with tags, fused parts or gaps): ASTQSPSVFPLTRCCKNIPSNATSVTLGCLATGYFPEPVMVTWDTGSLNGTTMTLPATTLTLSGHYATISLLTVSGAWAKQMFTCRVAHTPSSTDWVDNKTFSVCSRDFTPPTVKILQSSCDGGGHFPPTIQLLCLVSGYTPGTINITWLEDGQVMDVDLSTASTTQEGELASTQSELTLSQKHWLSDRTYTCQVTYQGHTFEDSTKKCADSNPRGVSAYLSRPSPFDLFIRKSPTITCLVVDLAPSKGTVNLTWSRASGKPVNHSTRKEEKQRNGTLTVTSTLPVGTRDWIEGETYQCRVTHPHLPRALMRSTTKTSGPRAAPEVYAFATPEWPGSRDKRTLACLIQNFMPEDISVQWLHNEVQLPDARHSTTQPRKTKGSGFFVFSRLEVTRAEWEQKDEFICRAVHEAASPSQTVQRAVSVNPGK

Kd: 0.5 nM
koff: 9.74e-05 s⁻¹
kon: 201000 M⁻¹ s⁻¹
B1: GI-305 (FcεRIα ECD-Fc-anti-IL-4R scFv) fusion protein dimer (Fc fusion)
chain: VPQKPKVSLNPPWNRIFKGENVTLTCNGNNFFEVSSTKWFHNGSLSEETNSSLNIVNAKFEDSGEYKCQHQQVNESEPVYLEVFSDWLLLQASAEVVMEGQPLFLRCHGWRNWDVYKVIYYKDGEALKYWYENHNISITNATVEDSGTYYCTGKVWQLDYESEPLNITVIKAPREKYWLQGSGGGGSGGGGSGGGGSAESKYGPPCPPCPAPEAAGGPSVFLFPPKPKDQLMISRTPEVTCVVVDVSQEDPEVQFNWYVDGVEVHNAKTKPREEQFNSTYRVVSVLTVLHQDWLNGKEYKCKVSNKGLPSSIEKTISKAKGQPREPQVYTLPPSQEEMTKNQVSLTCLVKGFYPSDIAVEWESNGQPENNYKTTPPVLDSDGSFFLYSRLTVDKSRWQEGNVFSCSVLHEALHNHYTQKSLSLSLGGGGGSGGGGSGGEVQLVESGGGLEQPGGSLRLSCAGSGFTFRDYAMTWVRQAPGKCLEWVSSISGSGGNTYYADSVKGRFTISRDNSKNTLYLQMNSLRAEDTAVYYCAKDRLSITIRPRYYGLDVWGQGTTVTVSSGGGGSGGGGSGGGGSGGGGSDIVMTQSPLSLPVTPGEPASISCRSSQSLLYSIGYNYLDWYLQKSGQSPQLLIYLGSNRASGVPDRFSGSGSGTDFTLKISRVEAEDVGFYYCMQALQTPYTFGCGTKLEIK
